Test results published in patent US20200255478A1 (ALMIRALL S A, published 2020).
Positions of bridges follow the written chain, without caps; N, C: chain ends. Non-standard residues stand in square brackets, D forms with d. Primed or numbered codes have the meaning given here. *: point of attachment. (pyridine)3,5‑diyldimethylene = -CH2-(pyridine-3,5-diyl)-CH2- bridge between the two Cys sulfurs; (3,3-oxetanediyl)dimethylene = -CH2-(oxetane-3,3-diyl)-CH2- bridge between the two Cys sulfurs; (1,2-phenylenediyl)dimethylene = -CH2-(1,2-phenylene)-CH2- bridge between the two Cys sulfurs; Pro(4S-NH2) = N[C@@H]1CN[C@H](C(=O)O)C1; Stearoyl = CCCCCCCCCCCCCCCCCC(=O)*; Palmitoyl = CCCCCCCCCCCCCCCC(=O)*; Nonadecanoyl′ = not defined here; Myristoyl = CCCCCCCCCCCCCC(=O)*; Thz = O=C(O)[C@@H]1CSCN1; Dodecyl = CCCCCCCCCCCC*; βAla = NCCC(=O)O

B1: {[&1Pro((4S)-NH-oleyl)-Gln-Cys(&2)-Asp-Pro-Glu-Thr-Gly-Glu-Cys(&3)-Leu-D-Pro&1][&2(1,2-phenylenediyl)dimethylene&3]} (peptide)
peptide: cyclo([Pro(4S-NH2)](oleyl)QCDPETGECL[dP])
modifications: linker 3-10 via (1,2-phenylenediyl)dimethylene
B2: {[&1Pro((4S)-NH-behenyl)-Gln-Cys(&2)-Asp-Pro-Glu-Thr-Gly-Glu-Cys(&3)-Leu-D-Pro&1][&2(1,2-phenylenediyl)dimethylene&3]} (peptide)
peptide: cyclo([Pro(4S-NH2)](behenyl)QCDPETGECL[dP])
modifications: linker 3-10 via (1,2-phenylenediyl)dimethylene
B3: {[&1Leu-Gln-Cys(&2)-Asp-Glu-Glu-Thr-Gly-Glu-Cys(&3)-Leu-Pro&1][&2(1,3-phenylenediyl)dimethylene&3]} (peptide)
peptide: cyclo(LQCDEETGECLP)
modifications: linker 3-10 via (1,3-phenylenediyl)dimethylene
B4: {[&1Pro((4S)-NH-Stearyl)-Gln-Cys(&2)-Asp-Pro-Glu-Thr-Gly-Glu-Cys(&3)-Leu-D-Pro&1][&2(1,3-phenylenediyl)dimethylene&3]} (peptide)
peptide: cyclo([Pro(4S-NH2)](Stearoyl)QCDPETGECL[dP])
modifications: linker 3-10 via (1,3-phenylenediyl)dimethylene
B5: {[&1Pro((4S)-NH-Nonadecanoyl)-Gln-Cys(&2)-Asp-Pro-Glu-Thr-Gly-Glu-Cys(&3)-Leu-D-Pro&1][&2(1,2-phenylenediyl)dimethylene&3]} (peptide)
peptide: cyclo([Pro(4S-NH2)](Nonadecanoyl′)QCDPETGECL[dP])
modifications: linker 3-10 via (1,2-phenylenediyl)dimethylene
B6: {[&1Pro((4S)-NH-α-linolenyl)-Gln-Cys(&2)-Asp-Pro-Glu-Thr-Gly-Glu-Cys(&3)-Leu-D-Pro&1][&2(1,2-phenylenediyl)dimethylene&3]} (peptide)
peptide: cyclo([Pro(4S-NH2)](α‑linolenyl)QCDPETGECL[dP])
modifications: linker 3-10 via (1,2-phenylenediyl)dimethylene
B7: {[&1Pro((4S)-NH-Stearyl)-Gln-Cys(&2)-Asp-Thz-Glu-Thr-Gly-Glu-Cys(&3)-Leu-D-Pro&1][&2(3,3-oxetanediyl)dimethylene&3]} (peptide)
peptide: cyclo([Pro(4S-NH2)](Stearoyl)QCD[Thz]ETGECL[dP])
modifications: linker 3-10 via (3,3-oxetanediyl)dimethylene
B8: {[&1Pro((4S)-NH-Palmitoyl)-Gln-Cys(&2)-Asp-Pro-Glu-Thr-Gly-Glu-Cys(&3)-Leu-D-Pro&1][&2(1,2-phenylenediyl)dimethylene&3]} (peptide)
peptide: cyclo([Pro(4S-NH2)](Palmitoyl)QCDPETGECL[dP])
modifications: linker 3-10 via (1,2-phenylenediyl)dimethylene
B9: {[&1Pro((4S)-NH-Acetyl)-Gln-Cys(&2)-Asp-Pro-Glu-Thr-Gly-Glu-Cys(&3)-Leu-D-Pro&1][&2(1,2-phenylenediyl)dimethylene&3]} (peptide)
peptide: cyclo([Pro(4S-NH2)](Ac)QCDPETGECL[dP])
modifications: linker 3-10 via (1,2-phenylenediyl)dimethylene
B10: {[&1Pro((4S)-NH-Stearyl)-Gln-Cys(&2)-Asp-Pro-Glu-Thr-Gly-Glu-Cys(&3)-Leu-D-Pro&1][&2(1,2-phenylenediyl)dimethylene&3]} (peptide)
peptide: cyclo([Pro(4S-NH2)](Stearoyl)QCDPETGECL[dP])
modifications: linker 3-10 via (1,2-phenylenediyl)dimethylene
B11: {[&1Pro((4S)-NH-Stearyl)-Gln-Cys(&2)-Asp-Arg-Glu-Thr-Gly-Glu-Cys(&3)-Leu-D-Pro&1][&2(1,2-phenylenediyl)dimethylene&3]} (peptide)
peptide: cyclo([Pro(4S-NH2)](Stearoyl)QCDRETGECL[dP])
modifications: linker 3-10 via (1,2-phenylenediyl)dimethylene
B12: {[Stearyl-Lys(&1)-Gln-Cys(&2)-Asp-Pro-Glu-Thr-Gly-Glu-Cys(&3)-Leu-D-Pro&1][&2(1,2-phenylenediyl)dimethylene&3]} (peptide)
peptide: Stearoyl-KQCDPETGECL[dP]
modifications: lactam 1-C; linker 3-10 via (1,2-phenylenediyl)dimethylene
B13: {[&1Lys(N6-Stearyl)-Gln-Cys(&2)-Asp-Pro-Glu-Thr-Gly-Glu-Cys(&3)-Leu-D-Pro&1][&2(1,2-phenylenediyl)dimethylene&3]} (peptide)
peptide: cyclo(K(Stearoyl)QCDPETGECL[dP])
modifications: linker 3-10 via (1,2-phenylenediyl)dimethylene
B14: {[&1Pro((4S)-NH-Stearyl)-Gln-Cys(&2)-Asp-Thz-Glu-Thr-Gly-Glu-Cys(&3)-Leu-D-Pro&1][&2(1,2-phenylenediyl)dimethylene&3]} (peptide)
peptide: cyclo([Pro(4S-NH2)](Stearoyl)QCD[Thz]ETGECL[dP])
modifications: linker 3-10 via (1,2-phenylenediyl)dimethylene
B15: {[&1Pro((4S)-NH-Arachidyl)-Gln-Cys(&2)-Asp-Thz-Glu-Thr-Gly-Glu-Cys(&3)-Leu-D-Pro&1][&2(3,3-oxetanediyl)dimethylene&3]} (peptide)
peptide: cyclo([Pro(4S-NH2)](Arachidyl)QCD[Thz]ETGECL[dP])
modifications: linker 3-10 via (3,3-oxetanediyl)dimethylene
B16: {[&1Pro((4S)-NH-Lauryl)-Gln-Cys(&2)-Asp-Pro-Glu-Thr-Gly-Glu-Cys(&3)-Leu-D-Pro&1][&2(1,2-phenylenediyl)dimethylene&3]} (peptide)
peptide: cyclo([Pro(4S-NH2)](Dodecyl)QCDPETGECL[dP])
modifications: linker 3-10 via (1,2-phenylenediyl)dimethylene
B17: {[&1Pro((4S)-NH-Arachidyl)-Gln-Cys(&2)-Asp-Pro-Glu-Thr-Gly-Glu-Cys(&3)-Leu-D-Pro&1][&2(3,3-oxetanediyl)dimethylene&3]} (peptide)
peptide: cyclo([Pro(4S-NH2)](Arachidyl)QCDPETGECL[dP])
modifications: linker 3-10 via (3,3-oxetanediyl)dimethylene
B18: {[Stearyl-βAla-Lys-Gln-Cys(&1)-Asp-Pro-Glu-Thr-Gly-Glu-Cys(&2)-Leu-Pro-NH2][&1(1,2-phenylenediyl)dimethylene&2]} (peptide)
peptide: Stearoyl-[βAla]KQCDPETGECLP-NH2
modifications: linker 4-11 via (1,2-phenylenediyl)dimethylene
B19: {[Stearyl-βAla-Lys-Lys-Cys(&1)-Asp-Pro-Glu-Thr-Gly-Glu-Cys(&2)-Leu-Pro-NH2][&1(1,2-phenylenediyl)dimethylene&2]} (peptide)
peptide: Stearoyl-[βAla]KKCDPETGECLP-NH2
modifications: linker 4-11 via (1,2-phenylenediyl)dimethylene
B20: {[&1Pro((4S)-NH-Stearyl)-Gln-Cys(&2)-Asp-Thz-Glu-Thr-Gly-Glu-Cys(&3)-Leu-D-Pro&1][&2(1,3-phenylenediyl)dimethylene&3]} (peptide)
peptide: cyclo([Pro(4S-NH2)](Stearoyl)QCD[Thz]ETGECL[dP])
modifications: linker 3-10 via (1,3-phenylenediyl)dimethylene
B21: {[&1Pro((4S)-NH-arachidyl)-Gln-Cys(&2)-Asp-Pro-Glu-Thr-Gly-Glu-Cys(&3)-Leu-D-Pro&1][&2(1,2-phenylenediyl)dimethylene&3]} (peptide)
peptide: cyclo([Pro(4S-NH2)](arachidyl)QCDPETGECL[dP])
modifications: linker 3-10 via (1,2-phenylenediyl)dimethylene
B22: {[&1Pro((4S)-NH-Miristoyl)-Gln-Cys(&2)-Asp-Pro-Glu-Thr-Gly-Glu-Cys(&3)-Leu-D-Pro&1][&2(1,2-phenylenediyl)dimethylene&3]} (peptide)
peptide: cyclo([Pro(4S-NH2)](Myristoyl)QCDPETGECL[dP])
modifications: linker 3-10 via (1,2-phenylenediyl)dimethylene
B23: {[&1Pro((4S)-NH-Arachidyl)-Gln-Cys(&2)-Asp-Thz-Glu-Thr-Gly-Glu-Cys(&3)-Leu-D-Pro&1][&2(1,2-phenylenediyl)dimethylene&3]} (peptide)
peptide: cyclo([Pro(4S-NH2)](Arachidyl)QCD[Thz]ETGECL[dP])
modifications: linker 3-10 via (1,2-phenylenediyl)dimethylene
B24: {[Stearyl-βAla-Leu-Leu-Cys(&1)-Asp-Pro-Glu-Thr-Gly-Glu-Cys(&2)-Leu-Leu-NH2][&1(3,3-oxetanediyl)dimethylene&2]} (peptide)
peptide: Stearoyl-[βAla]LLCDPETGECLL-NH2
modifications: linker 4-11 via (3,3-oxetanediyl)dimethylene
B25: {[H-Leu-Gln-Cys(&1)-Asp-Ala-Glu-Thr-Gly-Glu-Cys(&2)-Leu-Pro-OH][&1(1,3-phenylenediyl)dimethylene&2]} (peptide)
peptide: H-LQCDAETGECLP-OH
modifications: linker 3-10 via (1,3-phenylenediyl)dimethylene
B26: {[Stearyl-βAla-Leu-Gln-Cys(&1)-Asp-Pro-Glu-Thr-Gly-Glu-Cys(&2)-Leu-Pro-NH2][&1(pyridine)3,5-diyldimethylene&2]} (peptide)
peptide: Stearoyl-[βAla]LQCDPETGECLP-NH2
modifications: linker 4-11 via (pyridine)3,5‑diyldimethylene

The binders below were run against T1, Keap1-Maltose Binding Protein (MBP tag) (UniProt Q14145 321-609, limits assumed) (assay: TR-FRET competition vs ETGE-biotin; grade band per paragraph 615).
T1 construct: also called Keap1-MBP; Keap-MBP
T1 sequence (Q14145 321-609 limits assumed): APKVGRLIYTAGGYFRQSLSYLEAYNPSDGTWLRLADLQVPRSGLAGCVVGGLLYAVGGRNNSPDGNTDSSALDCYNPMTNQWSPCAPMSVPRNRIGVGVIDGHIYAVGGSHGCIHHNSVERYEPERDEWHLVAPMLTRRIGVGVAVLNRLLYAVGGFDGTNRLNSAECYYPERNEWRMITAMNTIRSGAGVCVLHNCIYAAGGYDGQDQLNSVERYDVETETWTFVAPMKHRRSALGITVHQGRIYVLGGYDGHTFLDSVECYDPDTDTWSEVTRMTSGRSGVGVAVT

IC50, < 1 nM:
B1
B2
B3
B4
B5
B6
B7
B8
B9
B10
B11
B12
B13
B14
B15
B16
B17
B18
B19
B20
B21
B22
B23
B24
B25
B26
